{"source": "patent US20210101937A1", "about": "(Bicycle, published 2021)", "data": [{"target": "CD137 (UniProt Q07011 24-255, limits assumed)", "sequence (Q07011 24-255 limits assumed)": "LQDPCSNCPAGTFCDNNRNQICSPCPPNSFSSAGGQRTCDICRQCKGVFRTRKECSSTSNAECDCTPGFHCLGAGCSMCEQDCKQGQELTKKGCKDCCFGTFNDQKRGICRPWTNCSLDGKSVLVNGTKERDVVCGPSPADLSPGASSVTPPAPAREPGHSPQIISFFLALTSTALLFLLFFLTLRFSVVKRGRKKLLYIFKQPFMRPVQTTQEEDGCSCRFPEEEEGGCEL", "assay": "cell-based or functional assay", "units": {"EC50": "nM", "Fold Induction over background": "fold over background"}, "values": [{"binder": "BCY12375 ([Ac]C[tBuAla]EE(dK)PYCFADPY[Nle]C[Dap(PYA)]; carries Palmitic acid-PEG10 (Example 1); Cys residues bonded to TATA scaffold; Ac-SDKCSAGWLTMCQK[PYA]LHLCPSH; Cys residues bonded to TATA scaffold) peptide 1: SDKCSAGWLTMCQKLHLCPSH peptide 2: CXEEKPYCFADPYXCX", "EC50": 22, "Fold Induction over background": 3}, {"binder": "BCY12230 (Ac-C[tBuAla]PE[D-Lys(PYA)]PYCFADPY[Nle]CA; Cys residues bonded to TATA scaffold; [Ac]D[HArg]CSKGWLTMCQK(Ac)LHLCPSH; Cys residues bonded to TATA scaffold) peptide 1: DXCSKGWLTMCQKLHLCPSH peptide 2: CXPEXPYCFADPYXCA", "EC50": 46, "Fold Induction over background": 10}, {"binder": "BCY12242 (Ac-C[tBuAla]PE[D-Lys(PYA)]PYCFADPY[Nle]CA; Cys residues bonded to TATA scaffold; [Ac]D[HArg]CSAGWLTMCQK(Ac)LKLCPSH; Cys residues bonded to TATA scaffold) peptide 1: DXCSAGWLTMCQKLKLCPSH peptide 2: CXPEXPYCFADPYXCA", "EC50": 20, "Fold Induction over background": 13}]}]}
